From the DeepSol protein solubility set come the findings set out here.

The data set is described as follows: soluble on expression in E. coli; label from the status in PepcDB or PDB records.
As for “AKWPHLKVGGAILVAPAEPRHSDRTESFGPIFEESLGVPAYVVSSRNDPWMSFTQAERLARAWRADVVDLGFAGHINVDSGFGPWPGGVVLRDELARRPVP”, the “soluble on expression in E. coli” value is listed as “not soluble”. The value for “MGSDKIHHHHHHMFSRRFRRLSPRDIIGGDVTLRRPSVAEALAVASASFIASFYVSGETILLAAGLALGGLAIASSLPARAGRVFIAGIRLEFMIPGRIVEGEVRTGRLLVENRTLNPMVLKIILKPEEGLEVEPERAEVHAPPLSRRSISLVVKPRFGRYKLIASIEEARSPLGLWSLQPEQPQTAVEVLATPKPEVVSEDISVLTGPGSLDRGREGSGLDYRSFREYQPGDDPRSIEWKLTGRRGAPVVREVEGAESSKPVRLVLAIRPQHYRKPLYNSPYGAAARRLYTISMMLAEEGVRHSVLLPGARGFQELEISTPRDTLELGLALAIYTPEDPPIDYAYLIEDLARRDSPVIVVSPKGTLGEIVDKDRVYVLEV” was “not soluble”. Consider “MDMPVDPNEPTYCLCHQVSYGEMIGCDNPDCSIEWFHFACVGLTTKPRGKWFCPRCSQER”, for which the “soluble on expression in E. coli” value is reported as “soluble”. “MANYWLYKSEPFKWSWEMQKAKGETGEEWTGVRNYQARNNMRAMKIGDKGFFYHSNEGLDVVGIVEVCALSHPDSTAEGDLKWDCVDIRAVCDMPQPVSLKDVKANPKLEKMSLVTSMRLSVQPVTEEEYLEVCRMGGLANPPKSPDLEHHHHHH”: the “soluble on expression in E. coli” value is “soluble”. The value for “MSGESVIEFTGFIKACRLFRENRLAEAEAVCTNLLRKNPLDQATWALKMQCLSDSTYVDELENEDMGLAETFLDQNVIAPNARPGTSFARPKTSAKGVNPILRPTTNAGRPLSGVVRPQSSFKSGSMDQAVRTARTAKTARAVSSTSARNMRLGTASMAAGADGEFVNLARLNIDKYAADPQVNRQLFEYVFYYLNDIRVAHQIAGTASKAAGFEDYYWKNQLAKCYLRLGMLQDATKQLQSSLEQKKLIETFALLSKAYNRVDQPMAALKTYSAGLEVFPENVTMLTGMARVQEALGEYDESVKLYKRVLDAESNNIEAIACVATTYYYGGKPELAMRYYRRILQMGVSSPELFLNIGLCCMAAQQFDFALSSILRAQSTMTDDVAADVWYNIGQILVDIGDLVSAARSFRIALSHDPDHSESLVNLGILKHREGKIDEARSLYSSATSKNPYMFEGNYNLGLVSFTQGKYHECRELIEKALAAFPEHEHCKKILNHLKPLYESI” was “not soluble”; that for “MSWQTYVDDHLMCDIDGHRLTAAAIIGHDGSVWAQSSSFPQFKSDEVAAVMKDFDEPGSLAPTGLHLGGTKYMVIQGEPGAVIRGKKGSGGITVKRTGQALIIGIYDEPLTPGQCNMIVERLGDYLLDQGL” was “soluble”. As for “GMSIIDLTKLEQKVATMWDSILTNSPFIHEVLDGKATKALYAIYMTETYHYTKHNAKNQALVGIMGKDLPGKYLSFCFHHAHEEAGHELMALSDIASIGFDREDVLSSKPLPATETLIAYLYWISATGNPVQRLGYSYWAENVYGYIDPVLKAIQSTLDLTPQSMKFFIAHSKIDAKHAEEVNEMLHEVCKTQEDVDSVVAVMENSLVLTARILDDVWKEYQLFQSGASDRYAFLRDNA”, the “soluble on expression in E. coli” value was “soluble”.

For the sequence “MGSDKIHHHHHHMNKQVNFDELEVGYDVPALPGMDEADIQTPCLVLDLDALERNIKKMGDYAREHGMRHRVHGKMHKSVDVAKLQEELGGACGVCCQKVSEAEVFARGGIKDVMVSNQVTDPQKIDRLARMPKFGARVLCCVDDPANVADLSAAAVKHGTQIEALVEIDCGAGRCGVTTTQEVVNIAKMIDAAEGLKFAGIQAYQGAMQHLDSYDERASKTQVAIDMVEDAIAGLKANGLECDIVGGGGTGSYYFESNSGAFNELQCGSYAFMDADYGRILDKDGKRIDDGEWENALFILTSVMSHAKADKAIVDAGLKAQSVDSGLATIYGRDDVEYVKCSDEHGVVMDPDGVLNVNDKLRLVPGHCDPTCNVHDWYVGVRGGKVETLWPVSARGKAY”, the “soluble on expression in E. coli” value is given as “not soluble”. For “MGSSHHHHHHGGTGENLYFQGGSGSRFYTAKEVREHAFHDDAYVSLNGKVLDLTPLIAAYKEMPKFAHLAKPLVQVAGTDISHWWDAEANDLRSCVDVNSGMRTYAMPLGRVPHMPTIYPDSNIDLNYDIPWWKDPQYIIGALTSRTRRIRIVNTLTGDETTLDVCAEETLEELLRERYLSINAHARSYTWVRLDPDPRELDMSRTLEDNGIHDEADSFEDLGLNADYYIPAIHLYYNDDLTEA”, the “soluble on expression in E. coli” value was “soluble”. For the sequence “TNADYPALYLANFLLGTSETSRLWHRVRETEGLSYNVRSNLSVSSYEPSANWTIYAIYAPQNRARLEKAISEELARALKDGFTDQEVRDGVVALLNYRNLARAQDDVLADTWVNYMQTGRSFQWSADMDRKLEALTPDQVNAALRKYLKPDAFSTAVAGDFTKKSAP”, the “soluble on expression in E. coli” value is given as “not soluble”. Regarding “SIGLFKVKEKQREQAQNATRGGASVKKQSAGELRLHKDISELNLPSSCSISFPNGKDDLMNFEVSIKPDDGYYHNGTFVSHSKSLLCIHMKLQKLNAKPRFIIPISIWKETFA”, the “soluble on expression in E. coli” value is “soluble”. Turning to “MTWFIDRRLNGKNKSMVNRQRFLRRYKAQIKQSISEAINKRSVTDVDSGESVSIPTEDISEPMFHQGRGGLRHRVHPGNDHFVQNDRIERPQGGGGGSGSGQGQASQDGEGQDEFVFQISKDEYLDLLFEDLALPNLKQNQQRQLTEYKTHRAGYTANGVPANISVVRSLQNSLARRTAMTAGKRRELHALEENLAIISNSEPAQLLEEERLRKEIAELRAKIERVPFIDTFDLRYKNYEKRPDPSSQAVMFCLMDVSGSMDQSTKDMAKRFYILLYLFLSRTYKNVEVVYIRHHTQAKEVDEHEFFYSQETGGTIVSSALKLMDEVVKERYNPAQWNIYAAQASDGDNWADDSPLCHEILAKKLLPVVRYYSYIEITRRAHQTLWREYEHLQSTFDNFAMQHIRDQDDIYPVFRELFHKQNATAKGLEHHHHHH”, the “soluble on expression in E. coli” value is “not soluble”. Consider “MQWSVWKMEESLDTLFSLLPDVRRVSCEQEMQRFTSDRRKLEWLSVRVLLYSMLQEDKEIGYSSEGKPHLTDNSSFISISHTKGYVAVILSSVAPVGIDIEQYGQRVKRVYDRFIRSDERVEPYQGDETWSMLLHWSAKETIFKSMENADADLRKLCLSHFIPQSEGVFQVREYATERQQLFTVGYRICPDFVLTWTVTIS”, for which the “soluble on expression in E. coli” value was “not soluble”.

Regarding “MGSDKIHHHHHHMPETLNLNYYYGNEADQYSFYRIPKTLLTDRRYKGVSLEAKVLYGLLLDRMGLSARNGWLDNNGRVFLYFTQEEAMTMLGCGKDKVTKLFRELEGIGLMERKKQGQGHPARIYVKNFILEPEPTAPVQTAENQQSRPLPSAAVKTAEKPQSAPRKTSGQECGISAPNNTDINKTEKSDTDLSILPPTPSAVSSPAGKRAPRRMGLDEMESYRELIMENIDYDILLERYPYEKDLLDGYVELMLEVCCSTRESVRICGQEVPTEVIKSRFLKLNSEHIGYVMDSLKSNTAKIGNIKAYTLAALYNAPVTMGQYYTSLVSHDMAHGLLSG”, the “soluble on expression in E. coli” value is listed as “not soluble”. For “MGSDKIHHHHHHMCSEGLRERYVNPYTDFAFKLLFGTDLNKEILIGFLNALFDGKQVIEDVIYLNTEHLGSKETDRRAVFDVYCENEKGEKILIEMQRGEQQFFKDRSIYYATYPIREQAIKGEIWNYELKAVYVIGILNFALDDVSSSGFRHEVKLMDTTTHEVFFDKLTFVYLEMPKFHKTEQELDTLFDKWMFVLKNLARLMERPTSLQERVFNRLFEAAEIAQFSKENLYAYEESLKVYRDWNNVINTAIQKGIAEGEWMKAKAIAGNLKNAGLSIAEIAKVTGLSEDEINSL”, the “soluble on expression in E. coli” value is “not soluble”. Turning to “TQYKYAWIINGLTKSTGETYIPTAADDGFNIRLEVTGQDAYGQVTEMQYVVYAFSKVETIFSDMYAFAALKTDGSVVTWGYSDYGGDSSSVAGQLTSGVKVIDSTSSAFAAIKEDGSVVTWGDSPYGGDSSSVAGKLTSGVKVIYSNSSAFAAVKQDGSVVTWGSYGGDSSSVAGQLTSGVKVIYSTDSEFGAFAAVKEDGSVVTWGNSPYGGDSSSVAGQLTSGVKVIYSTNNAFAAVKEDGSVVTWGDSGAGGDSSSVAGQLTSGVKVIYSTNNAFAAVKEDGSVVTWGGYGGDSSSVAGQLTSGVKVIYSTNNAFAAVKEDGSVVTWGDSGNGGDSSSVAGQLTSGVKVIDSTYSAFAAVKEDGSVVAWGNSGYGGDSSSVAGQLTSGVKVIDSTTSAFAVVKEDGSVVTWGGSFYGGDSSSVAGQLTSGVKVIYSTSSAFAVVKEDGSVVTWGGSFYGGDSSSVADKLAPNLFLIETSIN”, the “soluble on expression in E. coli” value is reported as “not soluble”.

Turning to “MNATIQTIPELLIQTRGNQTEVARMLSCARGTVLKYNRDSKGERHVIVNGVLMVKQGKRGRP”, the “soluble on expression in E. coli” value is “not soluble”. With “MSLSDSQTLVVKLGTSVLTGGSRRLNRAHIVELVRQCAQLHAAGHRIVIVTSGAIAAGREHLGYPELPATIASKQLLAAVGQSRLIQLWEQLFSIYGIHVGQMLLTRADMEDRERFLNARDTLRALLDNNIVPVINENDAVATAAIKVGDNDNLSALAAILAGADKLLLLTDQKGLYTADPRSNPQAELIKDVYGIDDALRAIAGDSVSGLGTGGMSTKLQAADVACRAGIDTIIAAGSKPGVIGDVMEGISVGTLFHAQATPLENRKRWIFGAPPAGEITVDEGATAAILERGSSLLPKGIKSVTGNFSRGEVIRICNLEGRDIAHGVSRYNSDALRRIAGHHSQEIDAILGYEYGPVAVHRDDMITREGHHHHHH”, the “soluble on expression in E. coli” value was “soluble”. Turning to “MGSDKIHHHHHHASKIKQVGSTNLEPTTAYIRNYKATGSNAIYNKPGKLSGSKVVASASTAKAQSVLHGYKVAKLSNKSYYMKVVSFDGRYRGYIYVGKKNPVNNFKKVGGGLTYLSTTTSTSLTNNDKKDLSFAKPGTDTQIYKAPKGSQYKVGAAVKDTTDYKGHKLVASKAAMNDMDGQKWLYVSDVTEPTNASGWVLASQLTDYVAPKAPVSVGNDQTTVTKNWQREFYNPATGTKAYSFDNLNLPLLGTSGGSNVNWTTAVKKFNSDATVKGDKKDVVPADTLATAFKNSGLSTVYMKVTPTLLARIPGGLLDKIDSYSGLYMKFDLDMDNIPTTTHYGDQLKLAYKLDNTNLYYKPVISLGGLTNTNADGYAALPVQLNAMNTLWGLLYQ”, the “soluble on expression in E. coli” value is recorded as “not soluble”. For the sequence “MINDIKILGVGGSPRKNGNTDVLLDSFLKGAESAGVETKKVLLRDYSIEPCIGCERCRKTGTCTRFHDGMSLLYPEIEAAKGLTLGSPTYNYNVTALMKAFIDRLYPYYNFTNVRPRRYSSKLAGQGRKAIVFSVCEQLEIEEMGFTLGALGMPLEALGYEIVEKFPVTGYFDRGAVSRDEELLRKTFEAGKKMAEALHLEHHHHHH”, the “soluble on expression in E. coli” value was “not soluble”. Regarding “MGSDKIHHHHHHMNGHLNDCLICDGKLEYLDAAEEMECVICHKKHLNNVRCINRHYICDECHSKRGAKIILEVCRTTDSKNPIEIMQKLMAKPFIHMHGPEHHILTGAALLAAYHNSGGQLDLNKALNEIERRAKQVPGGACGFWGCCGAAISTGMFISIATGATPLSEREWSLSNLITSKVLRRISALGGPRCCKRNCFTAAKVAVEFTGEQLAVNMELPVDICCFFSPNNHECKGALCPYSPQHSNS”, the “soluble on expression in E. coli” value is reported as “not soluble”. “MRVKEQLLTLRAYVPGKNIEEVKREYGLSKIVKLASNENPFGCSARVTEALTSLASQYALYPDGHAFELRTQVAKHLGVKAEQLLFGSGLDEVIQMISRALLHEGTNVVMANPTFSQYHHHAVIEGAEVREVSLKDGIHDLDAMLQQVDDQTKIVWICNPNNPTGTYVEKQKLLSFLESVPKSALVIMDEAYYEYAGAEDYPQTLPLLEKYENLMVLRTFSKAYGLAAFRIGYAVGNTELIGQLEVARLPFNTSTVAQSVALAALEDQAFLQECVKKNEEGLHQYYAFCKEYNVFYYPSQTNFIFLKLGIPGNEAFERLMKKGYIVRSGAAFGIDDGIRITVGLKEENDEIIELLKELVNEQVQKEETYS”: the “soluble on expression in E. coli” value was “soluble”.
